{
  "source": "the RNAGym collection of RNA variant scans (doi:10.7554/elife.90254)",
  "parents": {"B1": {"name": "LINE1-full (parent)", "chain": "UACGUAGGUGGUUUUCCCCUGAUAGUGCUAAGGGGGCCUGGAAGUUUGGACUGGGCAGAGCUCAACACAGCGUGGCAAAGUGGCUGUGGCUAGACUGCCUCUCUGGAUUCCUCGUCACUCAGCAGGGCAUCUCUGAGAGAAAUGCC"}},
  "data": [
    {"variants_of": "B1", "assay": "self-cleavage, relative activity (ratio to wild type); higher = more cleavage; in vitro, sequencing; the parent is a self-cleaving ribozyme", "values": [
      {"variant": "UACGAAGGUGGUUUUCCCCUGAUAGUGCUAAGGGGGCCUGGAAAUUUGGACUGGGCAGAGCUCAACACAGCGUGGCAAAGUGGCUGUGGCUAGACUGCCUCUCUGGAUUCCUCGUCACUCAGCAGGGCAUCUCUGAGAGAAAUGCC", "self-cleavage": 0.81},
      {"variant": "UACGUAGGUGGUUUUCCCCUGAUAGUGCUAAGGGGGCCUGGAAGUUUGGACUGGGCAGAGCUCAACACAGCGUGGCAAAGUGGCUGUGGCCAGACUGCCUCUCUGGAAUCCUCGUCACUCAGCAGGGCAUCUCUGAGAGAAAUGCC", "self-cleavage": 0.55},
      {"variant": "UACGUAGGUGGUUUUCCCCUGAUAGUGCCAAGGGGGCCUGGAAGUUUGGACUGGGCAGAGCUCAACACAGCGUGGCAAAGUGGCUGUGGCUAGACUGCCUCUCUGGAUUCCUCGUCACUAAGCAGGGCAUCUCUGAGAGAAAUGCC", "self-cleavage": 1.24},
      {"variant": "UACGUAGGUGGUUUUCCCCUGAUAGUGCUAAGGGGGCCUGGAAGUUUGGACUGGGCAGAGCUCAACACAGCGUGGCAAAGUGACUGUGGCCAGACUGCCUCUCUGGAUUCCUCGUCACUCAGCAGGGCAUCUCUGAGAGAAAUGCC", "self-cleavage": 0.24},
      {"variant": "UACGCAGGUGGUUUUCCCCUGAUAGUGCUAAGGGGGCCUGGAUGUUUGGACUGGGCAGAGCUCAACACAGCGUGGCAAAGUGGCUGUGGCUAGACUGCCUCUCUGGAUUCCUCGUCACUCAGCAGGGCAUCUCUGAGAGAAAUGCC", "self-cleavage": 1.48},
      {"variant": "UACGUAGGUGGUUUUCCCCUGAUGGUGCUAAGGGGGCCAGGAAGUUUGGACUGGGCAGAGCUCAACACAGCGUGGCAAAGUGGCUGUGGCUAGACUGCCUCUCUGGAUUCCUCGUCACUCAGCAGGGCAUCUCUGAGAGAAAUGCC", "self-cleavage": 0.77},
      {"variant": "UACGUAGGUGGUUUUCCCCUGAUAGUGCUAAGGGGGCCUUGAAGUUUGGACUGGGCAGAGCUCAACACAGCGUGGCAAAGUGGCUGUGGCUAGACUGCCUCUCUGGAUUCCUCGUCACUCAGCAGGGCAUCCCUGAGAGAAAUGCC", "self-cleavage": 2.4},
      {"variant": "UACGUAGGUGGUUUUCCCCUGAAAGUGCUAAGGGGGCCUGGAAGUUUGGACUGGGCAGGGCUCAACACAGCGUGGCAAAGUGGCUGUGGCUAGACUGCCUCUCUGGAUUCCUCGUCACUCAGCAGGGCAUCUCUGAGAGAAAUGCC", "self-cleavage": 0.24},
      {"variant": "UACGUAGGUGGUUUUCCCCUGAUAGUGCUAAGGGGGCCUGGAAGUUCGGACUGGGCAGAGCUCAACACAGCGUGGCAAAGUGGCUGUGGCUAGACUGCCUCUCUGGAUUCCUCAUCACUCAGCAGGGCAUCUCUGAGAGAAAUGCC", "self-cleavage": 1.66},
      {"variant": "UACGUAGGUGGUUUUCCCCUGAUAGUGCUAAGGGGGCCUGGAAGUUUGGACUGGGCAGAGCUCAACACAGCGUGGCAAAGUGGCUGUGGUUAGACUGCCUCUCUGGAUUCCUCGUCACUCAGCAGGGCAUCUCCGAGAGAAAUGCC", "self-cleavage": 0.04},
      {"variant": "UACGUAGGUGGUUUUCCCCUGAUAGUGCUAAGGGGGCCUGGAAGUUUGGACUGGGCAGAGCUCAACACAGCGUGGCAAAGUGGCUGUGGCUAGACUGCCUCUCUGGAUUCCUCGUCACUCAGCAGGGCAUUUCUGAGAGAAAUGCC", "self-cleavage": 1.41},
      {"variant": "UACGCAGGUGGUUUUCCCCUGAUAGUGCUAAGGGGGCCUGGAAGUUUGGACUGGGCAGAGCUCAACACAGCGUGGCAAAGUGGCUGUGGCGAGACUGCCUCUCUGGAUUCCUCGUCACUCAGCAGGGCAUCUCUGAGAGAAAUGCC", "self-cleavage": 0},
      {"variant": "UACGUAGGUGGUUUUCCCCUGAUAGUGCUAAGGGGGCCUGGAAGUUUGGACUGGGCAGAGCUCAACACAGCGUGGCAAAGAGGCUGUAGCUAGACUGCCUCUCUGGAUUCCUCGUCACUCAGCAGGGCAUCUCUGAGAGAAAUGCC", "self-cleavage": 0.06},
      {"variant": "CACGUAGGUGGUUUUCCCCUGAUAGUGCUAAGGGGGCCUGGAAGUUUGGACUGGGCAGAGCUCAACACAGCGUGGCAAAGUGGCUGUGGCUAGACUGCCUCUCUGGAUUCCUCGUCUCUCAGCAGGGCAUCUCUGAGAGAAAUGCC", "self-cleavage": 0.89},
      {"variant": "UACGUAGGUGGUUUUCCCCUGAUAGUGCAAAGGGGGCCUGGAAGUUUGGACUGGGCAGAGCUCGACACAGCGUGGCAAAGUGGCUGUGGCUAGACUGCCUCUCUGGAUUCCUCGUCACUCAGCAGGGCAUCUCUGAGAGAAAUGCC", "self-cleavage": 0.48},
      {"variant": "UACGUAGGUGGUUUUUCCCUGAUAGUGCUAAGGGGGCCUGGAAGUUUGGACUGGGCAGAGCUCAACACAGCGUGGCAAAGUGGCUGUGGCUAGACUGCCUCUCUGGAUUCCUCGUCACUCAGCAGGGCAUCUCUGAGAGAAAAGCC", "self-cleavage": 0.86},
      {"variant": "UACGUAGGUGAUUUUCCCCUGAUAGUGCUAAGGGGGCCUGGAAGUUUGGACUGGGCAGAGCUAAACACAGCGUGGCAAAGUGGCUGUGGCUAGACUGCCUCUCUGGAUUCCUCGUCACUCAGCAGGGCAUCUCUGAGAGAAAUGCC", "self-cleavage": 0.01},
      {"variant": "UACGUAGGUGGUAUUCCCCUGAUAGUGCUAAGGGGGCCUGGAAGUUUGGACUGGGCAGAGCUCAACACAGCGUGGCAAAGUGGCUGUGGCUAGACUGCCUCUCUGGAUUCCUCGUCACUCAGCAGGGCAUCACUGAGAGAAAUGCC", "self-cleavage": 0.87},
      {"variant": "UACGUAGGUGGUUUUCCCCUGAUAGUGCUAAGGGGGCCUGGAAGUUUGGACUGGGCAGAGCUCAGCACAGCGUGGCAAAGUGGCUGUGGCUGGACUGCCUCUCUGGAUUCCUCGUCACUCAGCAGGGCAUCUCUGAGAGAAAUGCC", "self-cleavage": 0.09},
      {"variant": "UACGUAGGUGGUUUUCCCCUGAUAGUGCUAAGGGGGCCUGGAAGUUUGGACUGGGCAGAGCUCAACACAGCGUGGCAAAGUGGCUGUGGCUAGACUGCCUCUCUGGAUACCUCGUCACUCAGCAGGGCAUCUCUGAGAGAAGUGCC", "self-cleavage": 1.39}
    ]}
  ]
}
